Experimental data: article PMC4068289

Target: human amyloid β 1–40 carrying the A2V mutation (Aβ_(1–40A2V)) (human)
Assay: far-Western, overlay or dot blot

human amyloid β 1–40 carrying the A2V mutation (Aβ_(1–40A2V)) (peptide)
fold increase in the proportion of A11-stained oligomers against WT: 3 fold
